Experimental data: publication PMC13486833, “Engineered HMGB1 construct with tandem Box B domains promotes tissue regeneration without potential for inflammation” (iScience, 2026)

Target: T1, RAGE-Fc chimera protein (UniProt Q15109 23-342)
T1 construct: RAGE, recombinant Fc chimera BioTechne Cat# 1145-RG; As far as I recall the catalogue product is the human RAGE extracellular domain fused to human IgG1 Fc; source: bought: BioTechne
Test: BLI; RAGE-Fc (15 μg/mL) immobilised on anti-IgG (AHC) biosensors; HMGB1 constructs 0–25 μM in solution; 200 s association/dissociation
Details: both partners purified

T1 sequence (Q15109 23-342, change not shown): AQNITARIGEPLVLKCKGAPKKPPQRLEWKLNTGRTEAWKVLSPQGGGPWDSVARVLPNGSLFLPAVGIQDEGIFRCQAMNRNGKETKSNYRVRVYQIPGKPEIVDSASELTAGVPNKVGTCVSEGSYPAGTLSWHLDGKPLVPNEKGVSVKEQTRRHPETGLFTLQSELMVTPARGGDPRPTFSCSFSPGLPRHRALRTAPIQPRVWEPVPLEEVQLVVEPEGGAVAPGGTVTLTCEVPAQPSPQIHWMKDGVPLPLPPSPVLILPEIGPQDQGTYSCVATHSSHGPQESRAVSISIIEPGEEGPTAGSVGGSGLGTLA

Kd: 5.5 µM
koff: 0.206 s⁻¹
B1: dBB12L (FR-HMGB1 89–174::89–174) (other)
chain: KDPNAPKRPPSAFFLFCSEYRPKIKGEHPGLSIGDVAKKLGEMWNNTAADDKQPYEKKAAKLKEKYEKDIAAYRAKGKPDAAKKGVKDPNAPKRPPSAFFLFCSEYRPKIKGEHPGLSIGDVAKKLGEMWNNTAADDKQPYEKKAAKLKEKYEKDIAAYRAKGKPDAAKKGV
modifications: fully reduced Cys105 (printed numbering) in both copies; printed n = entry n+1 (C22/C44/C105 = C23/C45/C106 in P09429); direct tandem fusion, with native flanks acting as the linker
